The values that follow come from publication PMC12711028.

The target of assay [1] is Ss-DAF-2B, isoform B of the insulin receptor homolog Ss-DAF-2 of Strongyloides stercoralis (Strongyloides stercoralis).
For assay [2] the target is unchanged. The source holds these as a separate data set.

Consider bovine insulin (ligand), for which, in assay [1], the Ss-daf-2 transcript level in iL3 treated with bovine insulin, fold change against control (RT-PCR); no significant effect is 1 fold. For the same substance, the feeding rate of S. stercoralis iL3 with bovine insulin; endogenous Ss-DAF-2, isoforms not told apart in assay [2] was 38.2%.

In the case of “human insulin (Hs-INS) (from UniProt P01308 1-110) (ligand)”, the Ss-daf-2 transcript level in iL3 treated with human insulin, fold change against control (RT-PCR) in assay [1] turned out to be 2.6 fold. Besides, the feeding rate of S. stercoralis iL3 with human insulin compared with porcine and bovine insulin at equivalent concentrations; endogenous Ss-DAF-2, isoforms not told apart in assay [2] was 72.2%.

Regarding porcine insulin (ligand), in assay [1], the Ss-daf-2 transcript level in iL3 treated with porcine insulin, fold change against control (RT-PCR); no significant effect turned out to be 0.9 fold. In assay [2], the feeding rate of S. stercoralis iL3 with porcine insulin; endogenous Ss-DAF-2, isoforms not told apart stood at 0.7%.
